Source: patent US20250090676A1

Target: human folate receptor alpha on cells (human) (UniProt P15328)
Test: cell-based or functional assay

Chain of human folate receptor alpha on cells (human) (P15328 25-234 limits assumed): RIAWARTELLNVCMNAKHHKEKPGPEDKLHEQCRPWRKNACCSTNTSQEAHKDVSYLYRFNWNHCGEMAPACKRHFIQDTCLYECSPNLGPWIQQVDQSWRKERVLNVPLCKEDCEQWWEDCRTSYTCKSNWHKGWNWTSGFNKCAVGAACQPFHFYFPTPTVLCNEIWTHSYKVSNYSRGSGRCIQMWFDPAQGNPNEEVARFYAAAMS

“ADC Molecule 21 (Mov19-sulfo-SPDB-DM4) (antibody)” gave a fold shift of cell killing EC50 on Igrov1 cells on addition of naked antibody of 3 fold.
